In article PMC7913688, “Human Rev1 relies on insert-2 to promote selective binding and accurate replication of stabilized G-quadruplex motifs”:
Positions count from the first letter of the chain named.

How the values were obtained:
[1] = molecular target: T1, hRev1 330-833 polymerase core (human, UniProt Q9UBZ9 330-833); experiment: fluorescence polarization; 100 mM LiCl; Fluorescence polarization: 1 nM FAM-DNA, 100 mM KCl or LiCl; DNA annealed in 50 mM HEPES pH 7.5; full buffer as in cited ref 17, temperature not stated. Footprinting: 50 mM HEPES pH 7.5, 100 mM KCl, 10 uM protein, 30 uM ssDNA, room temperature; details: protein: recombinant; label: 5'-FAM
T1 sequence: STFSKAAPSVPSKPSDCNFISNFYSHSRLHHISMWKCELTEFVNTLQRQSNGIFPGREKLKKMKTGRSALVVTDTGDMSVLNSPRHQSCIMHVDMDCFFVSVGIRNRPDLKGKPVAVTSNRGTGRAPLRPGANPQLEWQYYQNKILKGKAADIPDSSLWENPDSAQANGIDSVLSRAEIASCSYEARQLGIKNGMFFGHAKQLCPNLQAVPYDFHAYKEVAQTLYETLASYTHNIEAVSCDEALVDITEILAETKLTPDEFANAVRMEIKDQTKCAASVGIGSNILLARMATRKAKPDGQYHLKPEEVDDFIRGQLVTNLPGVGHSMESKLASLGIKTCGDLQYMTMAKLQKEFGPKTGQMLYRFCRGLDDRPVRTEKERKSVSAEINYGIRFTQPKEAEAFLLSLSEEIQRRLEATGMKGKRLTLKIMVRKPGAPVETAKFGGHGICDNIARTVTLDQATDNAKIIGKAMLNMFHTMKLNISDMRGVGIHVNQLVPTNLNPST

[2] = molecular target: T1, hRev1 330-833 polymerase core; experiment: fluorescence polarization; 100 mM KCl; Fluorescence polarization: 1 nM FAM-DNA, 100 mM KCl or LiCl; DNA annealed in 50 mM HEPES pH 7.5; full buffer as in cited ref 17, temperature not stated. Footprinting: 50 mM HEPES pH 7.5, 100 mM KCl, 10 uM protein, 30 uM ssDNA, room temperature; details: protein: recombinant
[3] = molecular target: T1, hRev1 330-833 polymerase core; experiment: fluorescence polarization; 100 mM LiCl (text: 139 +/- 17); Fluorescence polarization: 1 nM FAM-DNA, 100 mM KCl or LiCl; DNA annealed in 50 mM HEPES pH 7.5; full buffer as in cited ref 17, temperature not stated. Footprinting: 50 mM HEPES pH 7.5, 100 mM KCl, 10 uM protein, 30 uM ssDNA, room temperature; details: protein: recombinant; label: 5'-FAM; antiparallel G4 in K+
[4] = molecular target: T1, hRev1 330-833 polymerase core; experiment: fluorescence polarization; 100 mM KCl (text: 127 +/- 14); Fluorescence polarization: 1 nM FAM-DNA, 100 mM KCl or LiCl; DNA annealed in 50 mM HEPES pH 7.5; full buffer as in cited ref 17, temperature not stated. Footprinting: 50 mM HEPES pH 7.5, 100 mM KCl, 10 uM protein, 30 uM ssDNA, room temperature; details: protein: recombinant; label: 5'-FAM; antiparallel G4 in K+
[5] = molecular target: T1, hRev1 330-833 polymerase core; experiment: fluorescence polarization; 100 mM KCl (text: 406 +/- 38); Fluorescence polarization: 1 nM FAM-DNA, 100 mM KCl or LiCl; DNA annealed in 50 mM HEPES pH 7.5; full buffer as in cited ref 17, temperature not stated. Footprinting: 50 mM HEPES pH 7.5, 100 mM KCl, 10 uM protein, 30 uM ssDNA, room temperature; details: protein: recombinant; label: 5'-FAM; hybrid G4 in K+
[6] = molecular target: T1, hRev1 330-833 polymerase core; experiment: fluorescence polarization; 100 mM KCl (text: 1246 +/- 196); Fluorescence polarization: 1 nM FAM-DNA, 100 mM KCl or LiCl; DNA annealed in 50 mM HEPES pH 7.5; full buffer as in cited ref 17, temperature not stated. Footprinting: 50 mM HEPES pH 7.5, 100 mM KCl, 10 uM protein, 30 uM ssDNA, room temperature; details: protein: recombinant; label: 5'-FAM
[7] = label: 5'-FAM on template, parallel G4 in 5' overhang 18 nt, 11 bp duplex

Work on TGCTTGCTGTGCTTGCTATGAGATGAT (ssDNA) [Non-G4 TBA control ss] yielded a Kd [1] of 310 ± 40 nM and a Kd ([2]; label: 5'-FAM) of 380 ± 40 nM.

For AGGGAGGGTGGGAAGGGTTATGAGATGAT (structured_DNA) [Myc 2/11 ss G4], the Kd ([2]; label: 5'-FAM, parallel G4 (1:1:2 loops) in K+) was 22 ± 3 nM.

AGCGCGCGGCCGGCGAGCGTATGAGATGAT (ssDNA) [Non-G4 Rev1-prom control ss] was tested, and the Kd [1] was 260 ± 120 nM and the Kd ([2]; label: 5'-FAM) was 370 ± 70 nM.

B1: Myc 14/23 primer-template (mixed)
DNA 1: AGGGTGGGTAGGGTGGGTTATGAGATGAT
DNA 2: ATCATCTCATA
Binder B1 has a Kd [2, 7] of 59 ± 9 nM.

AGGGCGGGGCCGGGGAGGGTATGAGATGAT (structured_DNA) [Rev1-prom ss G4] was tested, and the Kd ([2]; label: 5'-FAM, parallel G4 (1:4:1 loops as stated) in K+) was 13 ± 3 nM.

With TGGTTGGTGTGGTTGGTATGAGATGAT (structured_DNA) [TBA ss G4] the Kd [3] was 140 ± 20 nM and the Kd [4] was 130 ± 10 nM.

B2: Myc 2/11 primer-template (mixed)
DNA 1: AGGGAGGGTGGGAAGGGTTATGAGATGAT
DNA 2: ATCATCTCATA
Binder B2 has a Kd [2, 7] of 45 ± 6 nM.

In the case of TTGGGTTAGGGTTAGGGTTAGGGATATGAGATGAT (structured_DNA) [hTelo-4 ss G4], the Kd [5] is reported as 410 ± 40 nM.

TTGCGTTAGCGTTAGCGTTAGCGATATGAGATGAT (ssDNA) [Non-G4 Telo-4 control ss] showed a Kd [1] of 920 ± 120 nM and a Kd [6] of 1200 ± 200 nM.

B3: hTelo-4 primer-template (mixed)
DNA 1: TTGGGTTAGGGTTAGGGTTAGGGATATGAGATGAT
DNA 2: ATCATCTCATA
B3 showed a Kd ([2]; label: 5'-FAM on template, hybrid G4 in 5' overhang 24 nt, 11 bp duplex) of 840 ± 50 nM.

B4: Rev1-prom primer-template (mixed)
DNA 1: AGGGCGGGGCCGGGGAGGGTATGAGATGAT
DNA 2: ATCATCTCATA
B4 gave a Kd ([2]; label: 5'-FAM on template, parallel G4 in 5' overhang 19 nt, 11 bp duplex) of 11 ± 2 nM.

B5: TBA primer-template (mixed)
DNA 1: TGGTTGGTGTGGTTGGTATGAGATGAT
DNA 2: ATCATCTCATA
In the case of B5, the Kd ([2]; label: 5'-FAM on template, antiparallel G4 in 5' overhang 16 nt, 11 bp duplex) is reported as 165 ± 25 nM.

B6: Non-G4 Rev1-prom primer-template (mixed)
DNA 1: AGCGCGCGGCCGGCGAGCGTATGAGATGAT
DNA 2: ATCATCTCATA
B6 showed a Kd ([2]; label: 5'-FAM on template, 5' overhang 19 nt, 11 bp duplex) of 154 ± 30 nM.

With AGCGGCGCGCGCTTTAGGAAAAGCGCGCGTTATGAGATGAT (ssDNA) [Non-G4 Bcl2 control ss] the Kd [1] was 750 ± 340 nM and the Kd ([2]; label: 5'-FAM) was 830 ± 310 nM.

B7: Non-G4 Bcl2 primer-template (mixed)
DNA 1: AGCGGCGCGCGCTTTAGGAAAAGCGCGCGTTATGAGATGAT
DNA 2: ATCATCTCATA
With B7 the Kd ([2]; label: 5'-FAM on template, 5' overhang 30 nt, 11 bp duplex) was 660 ± 120 nM.

B8: Bcl2 1245 primer-template (mixed)
DNA 1: B7 DNA 1 with C3G, C8G, C24G, C28G
DNA 2: ATCATCTCATA
In the case of B8, the Kd ([2]; label: 5'-FAM on template, parallel G4 in 5' overhang 30 nt, 11 bp duplex) is reported as 97 ± 20 nM.

With AGGGGCGGGCGCTTTAGGAAAAGGGCGGGTTATGAGATGAT (structured_DNA) [Bcl2 1245 ss G4] the Kd ([2]; label: 5'-FAM, parallel G4 (13-nt loop) in K+) was 76 ± 16 nM.

In the case of AGCGCGCTGTGCGAAGAGCGAATATGAGATGAT (ssDNA) [Non-G4 KRAS control ss], the Kd [1] is reported as 1620 ± 800 nM and the Kd ([2]; label: 5'-FAM) is reported as 840 ± 90 nM.

B9: KRAS 22RT primer-template (mixed)
DNA 1: AGGGCGGTGTGGGAAGAGGGAATATGAGATGAT
DNA 2: ATCATCTCATA
For B9, the Kd ([2]; label: 5'-FAM on template, parallel G4 in 5' overhang 22 nt, 11 bp duplex) was 120 ± 10 nM.

With AGGGCGGTGTGGGAAGAGGGAATATGAGATGAT (structured_DNA) [KRAS 22RT ss G4] the Kd ([2]; label: 5'-FAM, parallel G4 in K+) was 52 ± 10 nM.

B10: Non-G4 KRAS primer-template (mixed)
DNA 1: B9 DNA 1 with G3C, G7C, G12C, G19C
DNA 2: ATCATCTCATA
B10 was tested, and the Kd ([2]; label: 5'-FAM on template, 5' overhang 22 nt, 11 bp duplex) was 1120 ± 80 nM.
